From publication PMC6753139, “TRIM66 reads unmodified H3R2K4 and H3K56ac to respond to DNA damage in embryonic stem cells” (Nature Communications, 2019) come the findings set out here.

The target of one assay is T1, TRIM66-WT965-1160 (Homo sapiens, UniProt O15016).
T1 construct: ITC titration: titrating TRIM66-WT965-1160 with various histone H3 peptides; GST (N, cleaved yes); made in house; host or cells: Escherichia coli BL21 (DE3)
T1 sequence (O15016 1100-1295): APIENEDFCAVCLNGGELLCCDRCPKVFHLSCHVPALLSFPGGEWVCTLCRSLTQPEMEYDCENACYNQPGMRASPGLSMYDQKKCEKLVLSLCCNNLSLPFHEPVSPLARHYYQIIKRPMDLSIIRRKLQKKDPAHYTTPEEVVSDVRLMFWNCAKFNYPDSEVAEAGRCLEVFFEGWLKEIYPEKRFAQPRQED
The assay is described as follows: ITC, PHD-Bromodomain wild type. It is filed as binding. The following applies: ITC, 25 °C, pH 7.5. An excerpt:
We next performed the glutathione S-transferase (GST) pulldown assays of the TRIM66-WT965-1160 against the calf thymus histones to verify the histone-binding ability of TRIM66 PHD-Bromodomain. […] The PHD of TRIM66 shared a low conservation with those of ING4, PHF2, and BPTF, and lacked the conserved aromatic residues, which were necessary for binding H3K4me2/3[40]–[42] (Supplementary Fig. 2b). Nevertheless, TRIM66 was highly conserved in sequence and structure with the PHDs of TRIM24 and TRIM33 (Fig. 1c and Supplementary Fig. 2b), which were reported to bind H3K4me0[5],[6]; thus, we speculated that the PHD of TRIM66 could bind H3K4me0. To verify this hypothesis, we performed isothermal titration calorimetry (ITC)-based binding assays. […] Based on previous researches reporting the acetyl-lysine binding partners of Bromodomain[3]–[12], we chose a series of related peptides derived from H3 and H4, to test their interactions with TRIM66-WT965-1160 by ITC experiments. […] We further found the acetylated state of K56 was necessary for this binding (Supplementary Fig. 3b).
We next titrated the TRIM66-WT965-1160 with a series of R2-methylated H3 peptides through ITC assays. […] This finding was consistent with the structural observation that each NηH atom of the R2 formed a hydrogen bond with residues in protein (Fig. 2d).
The DNA fragments of human TRIM66_968-1160, TRIM24_824-1006, and TRIM33_882-1087 were amplified from a human bone marrow cDNA library using a PCR-based cloning strategy. The fragments of TRIM66-WT968-1160 were inserted into a pGEX-4T-1 plasmid (GE Healthcare). The fragments of TRIM24_824-1006 and TRIM33_882-1087 were ligated into a pET-SUMO-28a (+) plasmid (Novagen). The DNA fragments of TRIM66-MUT968-1160 and TRIM66-WT965-1160 with codon optimization were synthesized by General Biosystems (sequence was shown in Supplementary Methods) and inserted into a pGEXT-4T-1 plasmid (GE Healthcare). Mutants of TRIM66 PHD-Bromo were generated through PCR using the Mutant Best kit (Takara). The mutation of point mutant based on the codon-optimized DNA sequence of TRIM66-WT965-1160. All constructs were expressed in Escherichia coli BL21 (DE3). The construct of ASF1a1-156 inserted into a pRSFDuet plasmid (courtesy of Ruiming Xu Lab, Institute of Biophysics, Chinese Academy of Sciences) was expressed in E. coli BL21 (DE3) RIL. The construct of full-length H4 inserted into a pET3a plasmid was expressed in E. coli BL21 (DE3). The expression of full-length histone H3K56ac was performed in BL21 (DE3) cells transformed with pBK-AxcKRS3 and pET22b encoding H3 with amber codons at the K56 site[12]. The DNA fragment of full-length TRIM66 was synthesized by General Biosystems and ligated into fugw vector (Addgene). See the information of protein sequence in Supplementary Table 1.
(§1) The calorimetric experiments were performed at 25 °C using a MicroCal PEAQ-ITC. The proteins were dialyzed using a buffer containing 20 mM Tris and 100 mM NaCl at pH 7.5. Lyophilized peptides were dissolved in the same buffer and adjusted to pH 7.5 prior to use. Peptide concentrations were estimated from the quantitative NMR experiments[73],[74]. ITC measurements were performed via injection of 0.7–4 mM peptide into a cell containing 0.12 mM TRIM24-PHD-Bromo, 0.05 mM TRIM33 PHD-Bromo, and 0.05 or 0.11–0.15 mM TRIM66-PHD-Bromo (or its mutants). The ITC data were subsequently analyzed using the MicroCal PEAQ-ITC analysis software.

Another assay has as its target T2, TRIM66-GSGS968-1160 (Homo sapiens, UniProt O15016, A1173S/DEL1165-1171/P1175S/R1172G/S1174G).
T2 construct: We created a mutant protein (termed TRIM66-GSGS968-1160;); GST (N, cleaved yes); made in house; host or cells: Escherichia coli BL21 (DE3)
T2 sequence (O15016 with tags, fused parts or gaps DEL1165-1171/R1172G/A1173S/S1174G/P1175S): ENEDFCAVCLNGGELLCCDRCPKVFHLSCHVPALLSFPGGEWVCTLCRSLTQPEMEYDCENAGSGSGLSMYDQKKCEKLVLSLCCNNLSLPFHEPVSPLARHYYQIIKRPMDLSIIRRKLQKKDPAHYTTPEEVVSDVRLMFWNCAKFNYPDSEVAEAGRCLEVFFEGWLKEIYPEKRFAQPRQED
The assay can be described thus: ITC, NMR mutant protein. It is filed as binding. The following applies: 25 °C, 20 mM Tris, 100 mM NaCl, pH 7.5, single measurement. As to the method:
To investigate the interaction between the H3K56ac peptide and the TRIM66 PHD-Bromodomain, we performed a nuclear magnetic resonance (NMR) titration experiment. We created a mutant protein (termed TRIM66-GSGS968-1160; Supplementary Fig. 1e, Supplementary Fig. 7a, b, Supplementary Table 1, and Supplementary Note 2).
as §1, with “software. […]” for “software.”
protein (TRIM66-WT965-1160) in all the ITC and GST pull down interaction assays. Meanwhile, the […]
experiments and crystal experiment, respectively. […]
combinational manner (Fig. 1d). To further figure out the binding mode between the TRIM66 PHD-Bromodomain and the united H3(1-15)-(48-57) K56ac peptide, we performed a NMR titration experiment and carefully analyzed the linewidth changes of TRIM66 -GSGS968-1160 (this protein is […]

The target in the next assay is T3, TRIM24_824-1006 (Homo sapiens, UniProt O15164).
T3 construct: The fragments of TRIM24_824-1006 and TRIM33_882-1087 were ligated into a pET-SUMO-28a (+) plasmid; His-SUMO (N, cleaved yes); made in house; host or cells: Escherichia coli BL21 (DE3)
T3 sequence (O15164 824-1006): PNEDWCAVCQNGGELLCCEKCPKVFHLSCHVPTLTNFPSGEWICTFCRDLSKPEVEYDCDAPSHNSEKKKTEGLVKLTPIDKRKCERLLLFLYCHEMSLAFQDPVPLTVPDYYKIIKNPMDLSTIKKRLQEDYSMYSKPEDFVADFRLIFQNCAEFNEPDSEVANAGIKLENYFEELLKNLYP
The assay can be described thus: ITC, PHD-Bromodomain. The note with it: 25 °C, 20 mM Tris, 100 mM NaCl, pH 7.5, single measurement, error from curve fit, Weak binding = ITC curves cannot be fitted reliably. An excerpt:
(§2) We subsequently compared the complex structure of TRIM24, TRIM33, and TRIM66 with H3 peptide. […] (Fig. 2d). […] However, they were sensitive to H3R2me2s (Table 2, Supplementary Fig. 5b, c, and Supplementary Table 2).
(§3) The DNA fragments of human TRIM66_968-1160, TRIM24_824-1006, and TRIM33_882-1087 were amplified from a human bone marrow cDNA library using a PCR-based cloning strategy. The fragments of TRIM66-WT968-1160 were inserted into a pGEX-4T-1 plasmid (GE Healthcare). The fragments of TRIM24_824-1006 and TRIM33_882-1087 were ligated into a pET-SUMO-28a (+) plasmid (Novagen). The DNA fragments of TRIM66-MUT968-1160 and TRIM66-WT965-1160 with codon optimization were synthesized by General Biosystems (sequence was shown in Supplementary Methods) and inserted into a pGEXT-4T-1 plasmid (GE Healthcare). Mutants of TRIM66 PHD-Bromo were generated through PCR using the Mutant Best kit (Takara). The mutation of point mutant based on the codon-optimized DNA sequence of TRIM66-WT965-1160. All constructs were expressed in Escherichia coli BL21 (DE3). […]
(§4) The calorimetric experiments were performed at 25 °C using a MicroCal PEAQ-ITC. […] Peptide concentrations were estimated from the quantitative NMR experiments[73],[74]. […] The ITC data were subsequently analyzed using the MicroCal PEAQ-ITC analysis software.

The target in the next assay is T4, TRIM33_882-1087 (Homo sapiens, UniProt Q9UPN9).
T4 construct: The fragments of TRIM24_824-1006 and TRIM33_882-1087 were ligated into a pET-SUMO-28a (+) plasmid; His-SUMO (N, cleaved yes); made in house; host or cells: Escherichia coli BL21 (DE3)
T4 sequence (Q9UPN9 882-1087): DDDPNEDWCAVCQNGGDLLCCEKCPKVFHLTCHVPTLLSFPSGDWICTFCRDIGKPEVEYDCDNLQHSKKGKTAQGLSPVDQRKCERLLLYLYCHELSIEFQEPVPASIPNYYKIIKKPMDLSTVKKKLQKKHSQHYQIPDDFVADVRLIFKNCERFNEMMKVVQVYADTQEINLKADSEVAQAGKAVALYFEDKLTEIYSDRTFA
The assay can be described thus: ITC, PHD-Bromodomain. The note with it: 25 °C, 20 mM Tris, 100 mM NaCl, pH 7.5, single measurement, error from curve fit, Weak binding = ITC curves cannot be fitted reliably.
Text: as §2, §3, §4

The mark [1] stands for this setting: MicroCal PEAQ-ITC, 20 mM Tris, 100 mM NaCl, single measurement, error from curve fit, Weak binding = ITC curves cannot be fitted reliably, N.D. = no detectable binding.

“Also recorded” adds a separate entry of the source.

Turning to `CC[C@H](C)[C@H](NC(=O)[C@H](CCC(=O)O)NC(=O)[C@H](CCCNC(=N)N)NC(=O)[C@@H](N)CC(C)C)C(=O)N[C@@H](CCCNC(=N)N)C(=O)N[C@@H](CCCNC(=N)N)C(=O)N[C@@H](Cc1ccc(O)cc1)C(=O)N[C@@H](CCC(N)=O)C(=O)N[C@@H](CCCCNC(C)=O)C(=O)N[C@@H](CO)C(=O)O` [H3_48-57K56ac], the Kd on TRIM66-WT965-1160 (setting [1]) was determined as 109 µM; on TRIM66-GSGS968-1160, 127 ± 9.53 µM.
As for “H3R2me2s: symmetrically dimethylated H3R2 peptide”, the “binding (in words)” value with TRIM66-WT965-1160 is “obvious reduction in their binding affinities”. Besides, the KD result with TRIM66-WT965-1160 (setting [1]) was “Weak binding; also recorded: ^aWeak binding”; with TRIM24_824-1006, “Weak binding”; in the assay with TRIM33_882-1087 it was “Weak binding”.
